B1: KAT8 regulatory NSL complex subunit 1 (Homo sapiens), Q7Z3B3 (parent)
chain: MAAMAPALTDAAAEAHHIRFKLAPPSSTLSPGSAENNGNANILIAANGTKRKAIAAEDPSLDFRNNPTKEDLGKLQPLVASYLCSDVTSVPSKESLKLQGVFSKQTVLKSHPLLSQSYELRAELLGRQPVLEFSLENLRTMNTSGQTALPQAPVNGLAKKLTKSSTHSDHDNSTSLNGGKRALTSSALHGGEMGGSESGDLKGGMTNCTLPHRSLDVEHTTLYSNNSTANKSSVNSMEQPALQGSSRLSPGTDSSSNLGGVKLEGKKSPLSSILFSALDSDTRITALLRRQADIESRARRLQKRLQVVQAKQVERHIQHQLGGFLEKTLSKLPNLESLRPRSQLMLTRKAEAALRKAASETTTSEGLSNFLKSNSISEELERFTASGIANLRCSEQAFDSDVTDSSSGGESDIEEEELTRADPEQRHVPLRRRSEWKWAADRAAIVSRWNWLQAHVSDLEYRIRQQTDIYKQIRANKGLIVLGEVPPPEHTTDLFLPLSSEVKTDHGTDKLIESVSQPLENHGAPIIGHISESLSTKSCGALRPVNGVINTLQPVLADHIPGDSSDAEEQLHKKQRLNLVSSSSDGTCVAARTRPVLSCKKRRLVRPNSIVPLSKKVHRNSTIRPGCDVNPSCALCGSGSINTMPPEIHYEAPLLERLSQLDSCVHPVLAFPDDVPTSLHFQSMLKSQWQNKPFDKIKPPKKLSLKHRAPMPGSLPDSARKDRHKLVSSFLTTAKLSHHQTRPDRTHRQHLDDVGAVPMVERVTAPKAERLLNPPPPVHDPNHSKMRLRDHSSERSEVLKHHTDMSSSSYLAATHHPPHSPLVRQLSTSSDSPAPASSSSQVTASTSQQPVRRRRGESSFDINNIVIPMSVAATTRVEKLQYKEILTPSWREVDLQSLKGSPDEENEEIEDLSDAAFAALHAKCEEMERARWLWTTSVPPQRRGSRSYRSSDGRTTPQLGSANPSTPQPASPDVSSSHSLSEYSHGQSPRSPISPELHSAPLTPVARDTPRHLASEDTRCSTPELGLDEQSVQPWERRTFPLAHSPQAECEDQLDAQERAARCTRRTSGSKTGRETEAAPTSPPIVPLKSRHLVAAATAQRPTHR
B2: KAT8 regulatory NSL complex subunit 2 (Homo sapiens), Q9H9L4 (parent)
chain: MNRIRIHVLPTNRGRITPVPRSQEPLSCAFTHRPCSHPRLEGQEFCIKHILEDKNAPFKQCSYISTKNGKRCPNAAPKPEKKDGVSFCAEHVRRNALALHAQMKKTNPGPVGETLLCQLSSYAKTELGSQTPESSRSEASRILDEDSWSDGEQEPITVDQTWRGDPDSEADSIDSDQEDPLKHAGVYTAEEVALIMREKLIRLQSLYIDQFKRLQHLLKEKKRRYLHNRKVEHEALGSSLLTGPEGLLAKERENLKRLKCLRRYRQRYGVEALLHRQLKERRMLATDGAAQQAHTTRSSQRCLAFVDDVRCSNQSLPMTRHCLTHICQDTNQVLFKCCQGSEEVPCNKPVPVSLSEDPCCPLHFQLPPQMYKPEQVLSVPDDLEAGPMDLYLSAAELQPTESLPLEFSDDLDVVGDGMQCPPSPLLFDPSLTLEDHLVKEIAEDPVDILGQMQMAGDGCRSQGSRNSEKASAPLSQSGLATANGKPEPTSIS

Variants of: B1
Details: with wdr5_human WDR5, P61964

Question: Which “effect of a mutation on the interaction” value does the source give for R592A here?
Answer: disrupting interaction

Variants of: B2
Details: with wdr5_human WDR5, P61964

Question: MNRIRIHVLPTNRGRITPVPRSQEPLSCAFTHRPCSHPRLEGQEFCIKHILEDKNAPFKQCSYISTKNGKRCPNAAPKPEKKDGVSFCAEHVRRNALALHAQMKKTNPGPVGETLLCQLSSYAKTELGSQTPESSRSEASRILDEDSWSDGEQEPITVDQTWRGDPDSEADSIDSDQEDPLKHAGVYTAEEVALIMREKLIRLQSLYIDQFKRLQHLLKEKKRRYLHNRKVEHEALGSSLLTGPEGLLAKERENLKRLKCLRRYRQRYGVEALLHRQLKERRMLATDGAAQQAHTTRSSQRCLAFVDDVRCSNQSLPMTRHCLTHICQDTNQVLFKCCQGSEEVPCNKPVPVSLSEDPCCPLHFQLPPQMYKPEQVLSVPDDLEAGPMDLYLSAAELQPTESLPLEFSDDEDDVGDGMQCPPSPLLFDPSLTLEDHLVKEIAEDPVDILGQMQMAGDGCRSQGSRNSEKASAPLSQSGLATANGKPEPTSIS [L411E;V413D] was tested. Which “effect of a mutation on the interaction” value did it give?
Answer: disrupting interaction

Variants of: B2
Details: with wdr5_human WDR5, P61964
Remark: another data set of the same source

Question: How did the “effect of a mutation on the interaction” value turn out when MNRIRIHVLPTNRGRITPVPRSQEPLSCAFTHRPCSHPRLEGQEFCIKHILEDKNAPFKQCSYISTKNGKRCPNAAPKPEKKDGVSFCAEHVRRNALALHAQMKKTNPGPVGETLLCQLSSYAKTELGSQTPESSRSEASRILDEDSWSDGEQEPITVDQTWRGDPDSEADSIDSDQEDPLKHAGVYTAEEVALIMREKLIRLQSLYIDQFKRLQHLLKEKKRRYLHNRKVEHEALGSSLLTGPEGLLAKERENLKRLKCLRRYRQRYGVEALLHRQLKERRMLATDGAAQQAHTTRSSQRCLAFVDDVRCSNQSLPMTRHCLTHICQDTNQVLFKCCQGSEEVPCNKPVPVSLSEDPCCPLHFQLPPQMYKPEQVLSVPDDLEAGPMDLYLSAAELQPTESLPLEFSDDLDDVGDGMQCPPSPLLFDPSLTLEDHLVKEIAEDPVDILGQMQMAGDGCRSQGSRNSEKASAPLSQSGLATANGKPEPTSIS [V413D] was run?
Answer: disrupting interaction

Source: IntAct's records for PubMed 24788516
